From patent publication US20250163122A1, “COMPOSITIONS AND METHODS FOR TREATING AIRWAY MUCUS DYSFUNCTION” (BOARD OF REGENTS, THE UNIVERSITY OF TEXAS SYSTEM, priority 2022, published 2025)
Entries after “also recorded” stand apart in the source; their conditions may differ. Where a SMILES comes first, the peptide text is derived from it. Bridges are numbered along the chain shown (N, C = ends). [ ]: non-standard residue; d: D form. S5 = C=CCCC[C@](C)(N)C(=O)O

How the values were obtained:
[1] = CD spectroscopy, α-helical content of peptides; assay type: physicochemical; conditions: for helical content, ranking in words: among the peptides tested
Protocol: CD spectroscopy. CD spectra were measured with an AVIV stop-flow CD spectropolarimeter at 190 to 250 nm using a cell with a 1 mm path-length. The sample containing […] of synthesized peptides in PBS buffer (137 mM NaCl, 2.7 mM KCl, 10 mM Na2HPO4, and 2 mM KH2PO4, pH 7.4) was measured at 20° C. For the correction of the baseline error, the signal from a blank run with PBS buffer was subtracted from all the experimental spectra. The α-helical content of each peptide was calculated by dividing the mean residue ellipticity [φ]222obs by the reported [φ]222obs for a model helical decapeptide (Yang et al., 1986).

airway SNAREs only = biological target: T1, airway SNAREs only (Homo sapiens, UniProt O00161+Q13277+Q9BV40, C112S/C79S/C80S/C83S/C85S/C87S); assay: Single vesicle content mixing assay, airway SNAREs only (VAMP8 vesicles); assay type: biochemical; conditions: 10 μM peptide; raw count
T1 sequence (Q9BV40 1-100): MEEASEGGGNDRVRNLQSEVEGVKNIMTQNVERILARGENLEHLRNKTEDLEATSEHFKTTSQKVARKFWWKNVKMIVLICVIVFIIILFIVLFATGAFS
T1 sequence (Q13277 1-289): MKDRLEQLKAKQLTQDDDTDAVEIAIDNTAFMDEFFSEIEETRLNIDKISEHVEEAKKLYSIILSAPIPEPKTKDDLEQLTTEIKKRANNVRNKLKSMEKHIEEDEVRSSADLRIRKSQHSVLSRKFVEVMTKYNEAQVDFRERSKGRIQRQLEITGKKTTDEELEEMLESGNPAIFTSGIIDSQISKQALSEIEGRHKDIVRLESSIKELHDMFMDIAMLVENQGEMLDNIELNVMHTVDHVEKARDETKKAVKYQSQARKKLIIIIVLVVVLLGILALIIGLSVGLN
T1 sequence (O00161 1-211 C79S/C80S/C83S/C85S/C87S/C112S): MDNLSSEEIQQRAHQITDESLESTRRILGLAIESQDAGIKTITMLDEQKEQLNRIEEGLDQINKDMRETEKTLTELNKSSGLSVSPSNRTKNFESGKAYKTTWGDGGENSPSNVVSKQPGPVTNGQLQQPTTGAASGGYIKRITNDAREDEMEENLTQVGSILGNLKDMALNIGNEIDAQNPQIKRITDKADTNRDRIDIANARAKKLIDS
Text: For single vesicle content mixing assay, the lipid composition of the SV, SG, VAMP2, or VAMP8 vesicles was phosphatidylcholine (PC) (48%), phosphatidylethanolamine (PE) (20%), phosphatidylserine (PS) (12%), and cholesterol (20%); for both the neuronal and airway PM vesicles the lipid composition was Brain Total Lipid Extract supplemented 3.5 mol % PIP2, and 0.1 mol % biotinylated phosphatidylethanolamine (PE). The reconstitution method for neuronal PM and SV vesicles was described in detail previously (see Lai et al., 2017; Kyoung et al., 2011; and Lai et al., 2014). The same methods were used for airway PM, SG, VAMP2, and VAMP8 vesicles. […] A 3-5 fold excess of SNAP-25A or SNAP-23 (with respect to Stx1A or Stx3) and 3.5 mol % PIP2 were added to the protein-lipid mixture for neuronal or airway PM vesicles. […] For the preparation of SV, SG, VAMP2, or VAMP8 vesicles for single vesicle content mixing assay, 50 mM sulforhodamine B (Thermo Fisher Scientific) was added to the protein-lipid mixture. The vesicles subsequently formed during size exclusion chromatography using a Sepharose CL-4B column, packed under near constant pressure by gravity with a peristaltic pump (GE Healthcare) in a 5.5 ml column with a 5 ml bed volume that was equilibrated with buffer V (20 mM HEPES, pH 7.4, 90 mM NaCl) supplemented with 20 μM EGTA and 0.1% 2-mercaptoethanol. The eluent was subjected to dialysis into 21 of detergent-free buffer V supplemented with 20 μM EGTA, 0.1% 2-mercaptoethanol, 5 g of Bio-beads SM2 (Bio-Rad) and 0.8 g/L Chelex 100 resin (Bio-Rad). After 4 hours, the buffer was exchanged with 21 of fresh buffer V supplemented with 20 μM EGTA, 0.1% 2-mercaptoethanol and Bio-beads, and the dialysis continued for another 12 h (overnight). […] For ensemble lipid mixing assay, the reconstitution method is the same as that for the single vesicle content mixing assay, except that 50 mM sulforhodamine B was omitted for all the steps. Single vesicle content mixing experiments. All single vesicle fusion and single molecule experiments were performed on a prism-type total internal reflection fluorescence (TIRF) microscope using 532 nm (green) laser (CrystaLaser) excitation. Two observation channels were created by a 640 nm single-edge dichroic […]36, Shemrock): one channel was used for the fluorescence emission intensity of the content dyes and the other channel for that of the Cy5 dye that are part of the injected Ca^2+-solution. The two channels were recorded on two adjacent rectangular areas (45×90 m^2) of a charge-coupled device (CCD) camera (iXon+DV […], Andor Technology). The imaging data were recorded with the […] software developed by Taekjip Ha, Johns Hopkins University, Baltimore. Flow chambers were assembled by creating a “sandwich” consisting of a quartz slide and a glass coverslip that were both coated with polyethylene glycol (PEG) molecules consisting 0.1% (w/v) biotinylated-PEG except when stated otherwise, and using double-sided tape to create up to five flow-chambers. The single vesicle content mixing assay described in Lai et al. (2014) was used to monitor vesicle-vesicle association, Ca^2+-independent, and Ca^2+-triggered fusion. The surface of the quartz slides was passivated by coating the surface with polyethylene glycol (PEG) molecules which alleviated non-specific binding of vesicles. […]

Row | Compound | helical content, ranking in words [1] | Ca2+ independent fusion events (airway SNAREs only) | helicity / helical content ([1]; in solution, CD [φ]222 vs model helical decapeptide) [%]
1 | CC[C@H](C)[C@H](NC(=O)[C@]1(C)CCCC=CCCC[C@](C)(NC(=O)[C@H](CCC(=O)O)NC(=O)[C@H](CCC(=O)O)NC(C)=O)C(=O)N[C@@H](CCCCN)C(=O)N[C@@H](CC(=O)O)C(=O)N[C@@H](C)C(=O)N1)C(=O)N[C@@H](CCCNC(=N)N)C(=O)N[C@@]1(C)CCCC=CCCC[C@@](C)(C(=O)N[C@@H](CC(=O)O)C(=O)N[C@@H](CCC(=O)O)C(=O)N[C@@H](CCC(N)=O)C(=O)N[C@@H](CS)C(N)=O)NC(=O)[C@H](CCSC)NC(=O)[C@H](C(C)C)NC(=O)[C@H](CC(C)C)NC1=O [SP9, Ac-EE(S5)KDA(S5)IR(S5)LVM(S5)DEQC-amide] (Ac-EE[S5]KDA[S5]IR[S5]LVM[S5]DEQC-NH2; staple 3-7, 10-14) | largest helical content; also recorded: highest α-helicity | 22 | 
2 | Ac-SKD(S5)GIR(S5)LV(S5)LDE(S5)GEQL-amide (Ac-SKD[S5]GIR[S5]LV[S5]LDE[S5]GEQL-NH2; staple 11-15, 4-8; SMILES CC[C@H](C)[C@@H]1NC(=O)CNC(=O)[C@@](C)(NC(=O)[C@H](CC(=O)O)NC(=O)[C@H](CCCCN)NC(=O)[C@H](CO)NC(C)=O)CCCC=CCCC[C@@](C)(C(=O)N[C@@H](CC(C)C)C(=O)N[C@H](C(=O)N[C@@]2(C)CCCC=CCCC[C@@](C)(C(=O)NCC(=O)N[C@@H](CCC(=O)O)C(=O)N[C@@H](CCC(N)=O)C(=O)N[C@@H](CC(C)C)C(N)=O)NC(=O)[C@H](CCC(=O)O)NC(=O)[C@H](CC(=O)O)NC(=O)[C@H](CC(C)C)NC2=O)C(C)C)NC(=O)[C@H](CCCNC(=N)N)NC1=O) [SP10] | largest helical content | 18 | 
3 | Ac-SKD(S5)GIR(S5)LVMLDE(S5)GEQ(S5)DR-amide (Ac-SKD[S5]GIR[S5]LVMLDE[S5]GEQ[S5]DR-NH2; staple 15-19, 4-8; SMILES CC[C@H](C)[C@@H]1NC(=O)CNC(=O)[C@@](C)(NC(=O)[C@H](CC(=O)O)NC(=O)[C@H](CCCCN)NC(=O)[C@H](CO)NC(C)=O)CCCC=CCCC[C@@](C)(C(=O)N[C@@H](CC(C)C)C(=O)N[C@H](C(=O)N[C@@H](CCSC)C(=O)N[C@@H](CC(C)C)C(=O)N[C@@H](CC(=O)O)C(=O)N[C@@H](CCC(=O)O)C(=O)N[C@@]2(C)CCCC=CCCC[C@@](C)(C(=O)N[C@@H](CC(=O)O)C(=O)N[C@@H](CCCNC(=N)N)C(N)=O)NC(=O)[C@H](CCC(N)=O)NC(=O)[C@H](CCC(=O)O)NC(=O)CNC2=O)C(C)C)NC(=O)[C@H](CCCNC(=N)N)NC1=O) [SP1] | largest helical content | 26 | 
4 | Ac-SKDA(S5)IRT(S5)VM(S5)DEQ(S5)EQL-amide (Ac-SKDA[S5]IRT[S5]VM[S5]DEQ[S5]EQL-NH2; staple 12-16, 5-9; SMILES CC[C@H](C)[C@@H]1NC(=O)[C@@](C)(NC(=O)[C@H](C)NC(=O)[C@H](CC(=O)O)NC(=O)[C@H](CCCCN)NC(=O)[C@H](CO)NC(C)=O)CCCC=CCCC[C@@](C)(C(=O)N[C@H](C(=O)N[C@@H](CCSC)C(=O)N[C@@]2(C)CCCC=CCCC[C@@](C)(C(=O)N[C@@H](CCC(=O)O)C(=O)N[C@@H](CCC(N)=O)C(=O)N[C@@H](CC(C)C)C(N)=O)NC(=O)[C@H](CCC(N)=O)NC(=O)[C@H](CCC(=O)O)NC(=O)[C@H](CC(=O)O)NC2=O)C(C)C)NC(=O)[C@H]([C@@H](C)O)NC(=O)[C@H](CCCNC(=N)N)NC1=O) [SP4] | largest helical content | 16 | 
5 | EESKDAGIRTLVMLDEQGEQLD [Peptide P0, non-stapled SNAP-25A fragment used as a control, reference compound] |  | 38 | 5
